Several values for one entry are separate records, joined by “and”; a condition that tells them apart may be missing. Equal values may be shown once. Where no end group is shown, it is not given here. The star is where a group is joined. Dnp = O=[N+]([O-])c1ccc(*)c([N+](=O)[O-])c1; 2Abz = Nc1ccccc1C(=O)O

The record followed here is patent US20160024487A1, “THROMBIN SENSITIVE COAGULATION FACTOR X MOLECULES” (NOVO NORDISK A/S, priority 2013, published 2016).

In experiment [1] the target is T1, Human plasma purified Factor Xa (Homo sapiens, UniProt P00742).
T1 construct: purchased Molecular Innovations, Inc, Novi Mich., USA; host or cells: human plasma
Kind of experiment: Factor Xa cleavage kinetics of quenched fluorescence (QF) peptide substrates, progress curve. It is filed as biochemical. As to conditions: for Specificity Ratio (FIIa/FXa): FIIa kcat/KM divided by FXa kcat/KM, natural sequence QF substrates; for specificity ratio: X4/X3 positional scanning QF library (Table 4), FIIa/FXa.

The target of experiment [2] is Human plasma purified α-thrombin (Homo sapiens, UniProt P00734). Kind of experiment: Thrombin cleavage kinetics of quenched fluorescence (QF) peptide substrates, progress curve. It is filed as biochemical. As to conditions: for Fold-Improved (FpA): kcat/KM relative to FpA substrate Lys(Dnp)-DFLAEGGGVRIVGG-Lys(Abz); for Fold-Improved (PAR-1): kcat/KM relative to PAR 1 control substrate Lys(Dnp)-ATNATLDPRIVGG-Lys(Abz).

T1 sequence (P00742 41-179 limits assumed): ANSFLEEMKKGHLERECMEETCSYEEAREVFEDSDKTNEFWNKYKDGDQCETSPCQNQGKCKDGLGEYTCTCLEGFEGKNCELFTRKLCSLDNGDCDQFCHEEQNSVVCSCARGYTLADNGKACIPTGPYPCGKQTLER
T1 sequence (P00742 235-488 limits assumed): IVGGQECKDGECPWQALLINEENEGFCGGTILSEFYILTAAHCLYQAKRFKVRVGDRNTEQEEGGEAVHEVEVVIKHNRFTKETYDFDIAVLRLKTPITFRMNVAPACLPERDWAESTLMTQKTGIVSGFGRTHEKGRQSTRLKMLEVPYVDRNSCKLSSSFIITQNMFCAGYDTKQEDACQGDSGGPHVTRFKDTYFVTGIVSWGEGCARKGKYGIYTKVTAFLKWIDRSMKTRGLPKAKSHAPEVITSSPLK

As for “Antithrombin: QF substrate Lys(Dnp)-X10-X1-IVGG-Lys(Abz), X10-X1 = ASTAVVIAGR (K(Dnp)ASTAVVIAGRIVGGK(2Abz))”, in experiment [1], the “Specificity Ratio (FIIa/FXa)” value is recorded as 0. For the same substance, in experiment [2], the “Fold-Improved (FpA)” value worked out at 0.001 and the “Fold-Improved (PAR-1)” value amounted to 0.000.
On the same counts, the results for “Factor V (1): QF substrate Lys(Dnp)-X10-X1-IVGG-Lys(Abz), X10-X1 = HTHHAPLSPR (K(Dnp)HTHHAPLSPRIVGGK(Abz))” are 2, 77.2 and 11.2.
As to “Factor V (2): QF substrate Lys(Dnp)-X10-X1-IVGG-Lys(Abz), X10-X1 = NRLAAALGIR (K(Dnp)NRLAAALGIRIVGGK(2Abz))”, the “Specificity Ratio (FIIa/FXa)” value in experiment [1] is recorded as 302. Besides, in experiment [2], the “Fold-Improved (FpA)” value stood at 1.8 and the “Fold-Improved (PAR-1)” value is given as 0.3.
On to “Factor V (3): QF substrate Lys(Dnp)-X10-X1-IVGG-Lys(Abz), X10-X1 = PDNIAAWYLR (K(Dnp)PDNIAAWYLRIVGGK(2Abz))”, for which the “Specificity Ratio (FIIa/FXa)” value in experiment [1] was 7. For the same substance, in experiment [2], the “Fold-Improved (FpA)” value amounted to 0.2 and the “Fold-Improved (PAR-1)” value amounted to 0.03.
Take “Factor VIII (1): QF substrate Lys(Dnp)-X10-X1-IVGG-Lys(Abz), X10-X1 = LSKNNAIEPR (K(Dnp)LSKNNAIEPRIVGGK(2Abz))”: in experiment [2], the “Fold-Improved (FpA)” value amounted to 32.3 and the “Fold-Improved (PAR-1)” value was 4.7.
With “Factor VIII (2): QF substrate Lys(Dnp)-X10-X1-IVGG-Lys(Abz), X10-X1 = YDEDENQSPR (K(Dnp)YDEDENQSPRIVGGK(2Abz))”, the “Specificity Ratio (FIIa/FXa)” value in experiment [1] is on record as 13. Further, in experiment [2], the “Fold-Improved (FpA)” value was found to be 2.3 and the “Fold-Improved (PAR-1)” value was determined as 0.3.
Consider “Factor XI: QF substrate Lys(Dnp)-X10-X1-IVGG-Lys(Abz), X10-X1 = NESTTKIKPR (K(Dnp)NESTTKIKPRIVGGK(2Abz))”, for which the “Specificity Ratio (FIIa/FXa)” value in experiment [1] is reported as 559. For the same substance, in experiment [2], the “Fold-Improved (FpA)” value was 49.2 and the “Fold-Improved (PAR-1)” value worked out at 7.1.
Consider “Factor XIII: QF substrate Lys(Dnp)-X10-X1-IVGG-Lys(Abz), X10-X1 = TVELQGVVPR (K(Dnp)TVELQGVVPRIVGGK(Abz))”, for which the “Specificity Ratio (FIIa/FXa)” value in experiment [1] is given as 114. In addition, in experiment [2], the “Fold-Improved (FpA)” value was 28.7 and the “Fold-Improved (PAR-1)” value is 4.2.
The corresponding values for “FpA_P: QF substrate Lys(Dnp)-X10-X1-IVGG-Lys(Abz), X10-X1 = DFLAEGGGPR; FpA with proline at X2 (K(Dnp)DFLAEGGGPRIVGGK(2Abz))” are 6914, 97.8 and 14.2.
Take “FpB: QF substrate Lys(Dnp)-X10-X1-IVGG-Lys(Abz), X10-X1 = DNEEGFFSAR (K(Dnp)DNEEGFFSARIVGGK(2Abz))”: the “Specificity Ratio (FIIa/FXa)” value in experiment [1] is reported as 1. Further, in experiment [2], the “Fold-Improved (FpA)” value is given as 0.7 and the “Fold-Improved (PAR-1)” value is on record as 0.1.
Consider “Lys(Dnp)-DFLAEGGGVRIVGG-Lys(Abz) (K(Dnp)DFLAEGGGVRIVGGK(2Abz)) [FpA, reference compound]”, for which, in experiment [1], the “Specificity Ratio (FIIa/FXa)” value came to 121.
For the substance “MKPR: QF library substrate Lys(Dnp)-ATNATX4X3PRIVGG-Lys(Abz) with X4-X1 = MKPR (K(Dnp)ATNATMKPRIVGGK(2Abz))”, the specificity ratio in experiment [1] was about 300 fold.
Take “MTPR: QF library substrate Lys(Dnp)-ATNATX4X3PRIVGG-Lys(Abz) with X4-X1 = MTPR (K(Dnp)ATNATMTPRIVGGK(2Abz))”: the specificity ratio in experiment [1] is about 300 fold.
In the case of “Osteopontin: QF substrate Lys(Dnp)-X10-X1-IVGG-Lys(Abz), X10-X1 = RGDSVVYGLR (K(Dnp)RGDSVVYGLRIVGGK(Abz))”, the “Specificity Ratio (FIIa/FXa)” value in experiment [1] is 239. Besides, in experiment [2], the “Fold-Improved (FpA)” value came to 1.0 and the “Fold-Improved (PAR-1)” value turned out to be 0.1.
In the case of “PAR1 (2): QF substrate with X8-X1 = TNATLDPR, prime side IVGG (KTNATLDPRIVGGK)”, the “Specificity Ratio (FIIa/FXa)” value in experiment [1] stood at 4.
Same read-out and setting: with “PAR1 (3): QF substrate with X6-X1 = ATLDPR, prime side IVGG (KATLDPRIVGGK)” the figure was 4.
On to “PAR 1: QF substrate Lys(Dnp)-X10-X1-IVGG-Lys(Abz), X10-X1 = KATNATLDPR (Table 3 r16) (K(Dnp)ATNATLDPRIVGGK(2Abz); also: template implies Lys(Dnp) before X10 K, letters have one K, taken as Lys(Dnp))”, for which, in experiment [2], the “Fold-Improved (FpA)” value is 9.7 and 8.9 and 8.2; the “Fold-Improved (PAR-1)” value was 1.4 and 1.3 and 1.2.
For “PAR 3: QF substrate Lys(Dnp)-X10-X1-IVGG-Lys(Abz), X10-X1 = NLAKPTLPIK (K(Dnp)NLAKPTLPIKIVGGK(2Abz))”, the “Specificity Ratio (FIIa/FXa)” value in experiment [1] worked out at 5. Also, in experiment [2], the “Fold-Improved (FpA)” value was determined as 0.04 and the “Fold-Improved (PAR-1)” value was determined as 0.01.
Consider “PAR 4: QF substrate Lys(Dnp)-X10-X1-IVGG-Lys(Abz), X10-X1 = STPSILPAPR (K(Dnp)STPSILPAPRIVGGK(2Abz))”, for which the “Specificity Ratio (FIIa/FXa)” value in experiment [1] is 40. For the same substance, in experiment [2], the “Fold-Improved (FpA)” value came out at 23.1 and the “Fold-Improved (PAR-1)” value stood at 3.4.
For “Protein C: QF substrate Lys(Dnp)-X10-X1-IVGG-Lys(Abz), X10-X1 = EDQEDQVDPR (K(Dnp)EDQEDQVDPRIVGGK(2Abz))”, the “Specificity Ratio (FIIa/FXa)” value in experiment [1] is listed as 133. Besides, in experiment [2], the “Fold-Improved (FpA)” value is listed as 4.4 and the “Fold-Improved (PAR-1)” value turned out to be 0.6.
With “TAFI: QF substrate Lys(Dnp)-X10-X1-IVGG-Lys(Abz), X10-X1 = QISNDTVSPR (K(Dnp)QISNDTVSPRIVGGK(Abz))”, in experiment [1], the “Specificity Ratio (FIIa/FXa)” value turned out to be 16. In addition, in experiment [2], the “Fold-Improved (FpA)” value amounted to 13.1 and the “Fold-Improved (PAR-1)” value is 1.9.
As to “Thrombin (1): QF substrate Lys(Dnp)-X10-X1-IVGG-Lys(Abz), X10-X1 = DQVTVAMTPR (K(Dnp)DQVTVAMTPRIVGGK(2Abz))”, in experiment [1], the “Specificity Ratio (FIIa/FXa)” value stood at 64. In addition, in experiment [2], the “Fold-Improved (FpA)” value came out at 73.6 and the “Fold-Improved (PAR-1)” value came out at 10.7.
For “Thrombin (2): QF substrate Lys(Dnp)-X10-X1-IVGG-Lys(Abz), X10-X1 = SEYQTFFNPR (K(Dnp)SEYQTFFNPRIVGGK(Abz))”, the “Specificity Ratio (FIIa/FXa)” value in experiment [1] was 0. Besides, in experiment [2], the “Fold-Improved (FpA)” value came out at 48.7 and the “Fold-Improved (PAR-1)” value is 7.1.
The corresponding values for “Thrombin (3): QF substrate Lys(Dnp)-X10-X1-IVGG-Lys(Abz), X10-X1 = EDSDRAIEGR (K(Dnp)EDSDRAIEGRIVGGK(2Abz))” are 141, 0.000 and 0.000.
On to “WTPR: QF library substrate Lys(Dnp)-ATNATX4X3PRIVGG-Lys(Abz) with X4-X1 = WTPR (K(Dnp)ATNATWTPRIVGGK(2Abz))”, for which the specificity ratio in experiment [1] is recorded as about 300 fold.
